# Test: yeast display, Sf9 membrane polyspecificity reagent, FACS + sequencing; frameworks hold sequencing errors
# How it was run: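 After 36–48 hours of galactose induction, yeast (Saccharomyces cerevisiae BJ5465) displaying a synthetic nanobody library were stained at 4 °C for 1 hour with 10% biotinylated, detergent-solubilized Sf9 membrane reagent. Streptavidin microbeads enriched the stained cells before FACS sorting into low and high (top ~1%) gates on anti-HA and streptavidin fluorescence. Each clone's polyreactivity label reflects its gate of origin.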
row,Sequence,polyreactivity (PSR sort gate)
1,QVQLVESGGGLVQAGVSLRLSCAASGRIFGENAMGWYRQAPGEEREFVAVISISDASTYYADSVKGRFTISRDNAKNTVYFQMNSLKPEDTAVYYCAADLTDFLYVASDYCGQGTQVTVSS,low polyreactivity
2,QVQLVESGGGLVQAGGSLRLSCAASGRIFDVYAMGWYRQAPGKERELVAAITWSGTSTYYADSVKGRFTISRDNAKNTVYLQKNSLKPEDTAVYYCAAEVAYTDTEYFWYYYWGQGTQVTVSS,high polyreactivity
3,QVQLVESGGGLVQAGGSLRLSCAASGSIIGRYTMGWYRQAPGKERELVAAISRSGGSTYYADSVKGRFTISRDNSHNTVYLQMNSPKPEDTAVYYCAKRTYTPRVERLYSSYDYWGQGTQVTVSS,high polyreactivity
4,QVQHVESGGGLVQAGGRLRLRCAASGSIFGTYAMGWYRQAPGKERELVARISGGGSTYYADSVKGRFTISRDNAKNTVYLQMNSLKPEDTAVYYCNVRKWAYWSHAIIYNYWGQGTQVTVSS,high polyreactivity
5,QGQLVESGGGLVQAGGSLRLSCAASGFTFSYYAMGWYRQAPGKERELVAAISRSGGSTYYADSVKGRFTISRDNAKNTVYLQMNSLKPEDTEVYYCAKRIKDRSGEAYVGLYYWGQGTQVTVSS,high polyreactivity
6,QVQLVESGGGLVQAGGSLRLSCAASGRIFYRNTMGWYRQAPGKERELVAAITRSGGITNYADSVKGRFTISRDNAKNTVYLQMNSLKPEDTAVYYCNAAYLYSASRGVYRYRGDYWGQGTQVTVSS,high polyreactivity
7,QVQLVESGGGLVQAGGSLRLSCAASGRIFNVNAMGWYRQAPGKERELVAGITRSGGSTYYADSVKWRFTISRDNAKNTVYLQMNSLNPEDTAVYYCATQATPWYRYYYWGQGTQVTVSS,high polyreactivity
8,QVQLVESGGGLVQAGGSLRLSCAASGSIFDYYGMGWYRQAPGKERELVARITKRGGSTYYADSVMGRFTISRDNAKNTVYFQMNSLKPEDTAVYYCAAVVAYLFSGRGYRYNYWGQGTQVTLSS,high polyreactivity
9,QVQLVESGGGLDQAGGSLRLSCAASGFTLDYYTMGRYRQAPGKERELVAAISWIGTSTYYADSVKGRFTISRDNAKNTVYLQMNSLKPEDTAVYYCAAVGASVDDYYWGQGTQVTVSS,high polyreactivity
10,QVQLVESGGGVVQAGGRLRLSCSASGRTFPWYAMGWSRQEPGKEREVVAAITQSGGSTYYADSVKGRFTISRDNANNTVYLQMNSLKPEDTAGFYCAVASVNTVFYGQDHYYYDYGYWGQGTHVTVSS,low polyreactivity
11,QVQLVESGGGLVQAGGSLRLSCAASGYTFDGYAMGWYRQAPGKERELVAVITKSGGRKYYADSVKGRFTISRDNAKNTVYLQMNSLKREVTAVYYCAADDSGTKDIVEGEYWGQGTQVTVSS,high polyreactivity
12,QVQLVESGGGLVQAGGSLRLSCAASGRIFFDYAMGSYRQAPGKEWVLVAAINRGGRTYYADSVKGRFTMSRDNAKNTVYLPMNTLKPEDTAVYYCPADGQTAKSNFAYWGQRTQVTVSS,low polyreactivity
13,QVQLVESGGGLVQAGGSLRLSCAASGSIFRGKAMGWYRQAPGKERELVAAITRSGGRTYYADSVKGRFTISRDNAKNTVYLQMNSLKPDDTAVYYCAAEYYTGLGYWGQGTQVTVSS,high polyreactivity
14,QVQLVESGGGLVQAGGSLRLSCAASGRTFSYYGMGWYRKAPGKERELVAGISIRGSHTYYADSVKGRFTISRDNAKNTVFLQMNSLKPEDTGVYYCAARWIGLYSYEYWGQGSQVTVSS,high polyreactivity
15,QVQLVESGGGLVQAGGSLRLSCAASGNIFKGYAMGWYRQAPGKERELVAAISKSGGSTYYADSVKGRFTISRDNAKNTVYLQMNSLKPDDTAVYYCNTYTYAGYNYWGQGTQVTVSS,high polyreactivity
16,QVQLVESGGGLVQAGGSLRLSCAASGNIFFIYAMGWYRQAPGKERELVAAITSTGSTYYADSVKGRFTISRDNAKNTVYLQMNSLKPEDTAVYYCAALLQRRFAYDYWGQGTQVTVSS,low polyreactivity
17,QVQLVESGGGLVQAGGRLRLSCAASGRTFYKNARGWYREAPGKERELVAAITNRGGSTYYADSVKGRFTISRDNAKNTVYLQMNSLKPEDTAVYYCNARRGSTGNVARWHYDYWGQGTQVTVSS,low polyreactivity
18,QVQLVESGGGLVQAGGSLRLSCAASGFIFTSYAMGWYRQAPGKERELVAAISGSAASTYYADSVKGRFTISRDNAKNTVYLQMNSLKPEDTAVYYCAADYQGYTPSDGRYYWGQGTQVTVSS,low polyreactivity
19,QVQLVESRGGLVQAGGSLRLSCAASGFTFGWYAMGWYRQSPGKERELVAAITSGGSTKYADSVKGRFTISRDNAKNTVYLEMNSLKPEETAVYYCAAKRLGQYRPYTYGYWGQGTQVTVSS,high polyreactivity
20,QVQIVESGGGLVQAGGSLRLICAASGFTFTYNAMGWYRQAPWKERELVADIDSDGSTTYADSVKGRFTISRDNAKNTVYLQMNSLKPEDTAVYYCAADYWDYSVWRWYEYWGQGTQVTVSS,high polyreactivity
21,QVQLVESGGGLVQAGGSLRLSCAASGRTFQYNAMGWYRLAPGKERELVAAISSGGSTYYADSVKGRFSISRDNAKNTVYLQMNSLKPEDTAVYYCATYLAEYGYWGQGTQVTVSS,high polyreactivity
22,QVQLVESGGGLVQAGGSLRLSCAASGNTFYWNAMGWYRQAPGKERELVAAISTTGVSTYYADSVKGRFTISRDNAKNTVYLQMNSLKPEDTAVYYCAAEIIGYHTIYDYWGQGTQVTVSS,low polyreactivity

row,Sequence,polyreactivity (PSR sort gate)
1,QVQLVESGGGLVQAGGSLRLSCAASGRTLYRNAMGWDRQAPGKERELVATITSGGSTYYADSVKGRFTISRDTAKNTVYLLMNSLKPEDTAVYYCNADWYWRVYWGQGTQVTVSS,high polyreactivity
2,QVQLVESGGGLVQAGGSLRLSCAASGFIFDWYTMGWYRQAPGKERELVAAITIGGSTDYADSVKGRFTISRDNAKNTVYLQMNSLKPEDTAVYYCNALWYLSGTWYDYWGQGTQVTVSS,low polyreactivity
3,QVQLVESGGGLVQAGGSLRLSCAASGRTFIAYAMGWYRQAPGKERELVAAITSSGGSTYYADSVKGRFTISRDNAKNTVYLQMNSLKPEDTAVYYCATDIYESPYFYYSYYYWGQGTQVTVSS,low polyreactivity
4,QVQLVESGGGLVQAGVSLRLSCAASGRIFYAYAMGWYRKAPGKERELVAAISSSGRTYYADSVKGRLTISRDNAKNTVYLQMNSLKPEDTAVYYCAVDWSRQAHKFNYWGQGTQVTVSS,high polyreactivity
5,QVQLVESGGGLVQAGGSLRLSCAASGFNFDGNALGWYRPAPGKERELVAAIRSGGRTNYADSVKGRFTISRDNAKNTVYLQMNSLKPEDTAVYYCAARSIYPYYYRRDNRYYYWGQGTQVTVSS,high polyreactivity
6,QVQLVESGGGLVQAGGSLRLICAASGFILKPNAMGWYRQAPGKERELVAAISWSSGSTYYADSVKGRFTISRDNAKNTVYLQMNSLKPEDTAVYYCAADYFVYPVDWYDYWGQGTQVTVSS,low polyreactivity
7,QVQLVESGGGLVQAGGSLRLSCAASGRTLRYNVMGLYRQAPGKERELVAVIDRSGVSTYYADSVKGRFTISRDNAKNTVYLQMNSLKPEDTAVYYCAAPRVVYRGDYWGQGTQVTVSW,high polyreactivity
8,QVQLVESGAGLVKAGGILRLSCAASGFTFYGYAMGWYRQAPGKERELVAAITFRGDRTYYADSVKGRFTISRDNAKNTVYLQMNSLIPEDTAVYYCAAERPSGWYSYLSLYIVRRGYWGQGTQVSVSS,low polyreactivity
9,QVQLVESGGGLVQAGGSLRLSCAASGITFGVNTMGWYRQAPGKERELVAAITWRGGSTYYADSVKGRFTISRDNAQNTVYLQMNSLIPEDTAVYYCAAQPIWPGGQELDYWGQGTQVTVSS,low polyreactivity
10,QVQLVESGGGLVQAGGSLRLSCAASGRIFYLYTMGWYRQAPGKERELVAAITWSGGRTFYADSVKGRFTISRDNAKNTVYLQMNSLKPEDTAVYYCAARAYDSVGKYYYWGQGTQVTVSS,high polyreactivity
11,QVQLVESGGGLVQAGGSLRLSCAASGRTIWYYAMGWYRQAPGKESELVAAISWSGGTTFYADSVKGRFTISRDNAKYTVYLQMNSLKPEDTAVYYCAKKCIGYQEWIHSTRRYDYWGQGTQVTVSS,low polyreactivity
12,QVQLVESGGGLVQAGGSLRLSCAASGRIFSGNAMGWYRQAPGKERELVANITSSSNTNYADSVKGRFTISRDNAKNTVYLQMNSLKPEDTAVYYCAKSAHNGYSFYGYDYWGQGTQVTVSS,low polyreactivity
13,QVHLVESGGGLVQAGGSLRLSCAASGSTFQFNAMGWYRQAPGKERELVATISDGGSTSYADSVKGRFTISRDNAKNTVYLQMNSLKPEDTAVYFCARDRFYDFLRVDYWGQGTQVTVSS,low polyreactivity
14,QVQLVESGGGLVQAGGSLRLSCAASGRTYVYNAMGLYRHAPGKERELVAGITNGGSTNYADSVKGRFTISRDNAKNTVYLQMNSLKPEDTAVYYCNRDVKVLYASSHSPYGYDHWGQGTQVTVSS,low polyreactivity
15,QVQLVESGGGLVQAGGSLRLSCAASGFNFGWYAMGWYRQAPGKERELVAAISGRGGSTNYADSVKGRFTISRDNAKNTVYLQMNSLKPEDTAVYYCNAALSPWGNNYWGQGTQVSVSS,high polyreactivity
16,QVQLVESGGGLVQAGGSLRLSCAASGSIYRDALGWYRQAPGKERELVAAINFNGGRTYYADSVKGRFTISRDNAKNTVYLQMNSLKPEDTAVYYCAAVRSSNQGGFDYWGQGTQVTVSS,high polyreactivity
17,QVQLVESGGGLVQAGGSLRLSCAASGSIFGYYTMGWYRQAPGKERELVAAISKNGGSTYYADSVKGRFTISRDNAKNTVYLQMNSLKPEDTAVYYCAAEYTRKGVSGSGYDYWGQGTQVTVSS,low polyreactivity
18,QVQLVESGGGLVQAGGSLRLSCAASVRTMGPYTMGWYRPAPGKERELVAVISSRTGLTYYADSVKGRFTISRDNAKITFYLHMNSLKPEDTAVYYCNAGGRYHAPSGDYWGQGTQVTVSS,low polyreactivity
19,QVQLVESGGGLVQAGGSLRLSCAASGSTFREYTMGWYRQAPGKEWDLVAAITNSGGSTYYADSVKGRFTISRDNAKNTVYLQMNSLKPEDTAVYYCAAEVGIVDYDYWGQGNQVTVSS,low polyreactivity
20,QVQLEESGGGLVQAGGSLRLSCAASGSTFKYYAMGWYRQAHGKERELVAAISRRGGSTYYADSVKGRFTISRDNAKNTVYLQMNSLKPEDTAVYYCAADIIRPVTVDYWGQGTQVTVSS,high polyreactivity
21,QVQLVESGGGLVQAGGSLRLSCAASGRIFSRNAMGWYRQAPGKERELVAAISRSGTRTNYADSVKGRFTISRDNAKYTVYLQMNSLKPEDTAVYYCATAAFIVGSSRTYDYWGQGTQVTVSS,high polyreactivity
